First the molecules themselves.
B1: UL16-binding protein 6 (Homo sapiens), Q5VY80 (parent)
chain: MAAAAIPALLLCLPLLFLLFGWSRARRDDPHSLCYDITVIPKFRPGPRWCAVQGQVDEKTFLHYDCGNKTVTPVSPLGKKLNVTMAWKAQNPVLREVVDILTEQLLDIQLENYTPKEPLTLQARMSCEQKAEGHSSGSWQFSIDGQTFLLFDSEKRMWTTVHPGARKMKEKWENDKDVAMSFHYISMGDCIGWLEDFLMGMDSTLEPSAGAPLAMSSGTTQLRATATTLILCCLLIILPCFILPGI

The assay covers variants of B1. The note with it: with nkg2d_human KLRK1, P26718.
Chain of nkg2d_human KLRK1, P26718 (P26718 whole entry): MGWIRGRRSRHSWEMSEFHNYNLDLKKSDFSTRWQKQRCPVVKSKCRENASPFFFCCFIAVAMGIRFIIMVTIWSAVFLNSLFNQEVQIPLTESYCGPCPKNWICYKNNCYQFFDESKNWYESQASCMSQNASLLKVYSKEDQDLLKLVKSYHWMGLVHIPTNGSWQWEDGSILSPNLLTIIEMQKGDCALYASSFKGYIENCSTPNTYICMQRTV
Regarding MAAAAIPALLLCLPLLFLLFGWSRARRDDPHSLCYDITVIPKFRPGPRWCAVQGQVDEKTFLHYDCGNKTVTPVSPLGKKLNVTMAWKAQNPVLREVVDILTEQLRDIQLENYTPKEPLTLQARMSCEQKAEGHSSGSWQFSIDGQTFLLFDSEKRMWTTVHPGARKMKEKWENDKDVAMSFHYISMGDCIGWLEDFLMGMDSTLEPSAGAPLAMSSGTTQLRATATTLILCCLLIILPCFILPGI [L106R], the “effect of a mutation on the interaction” value is given as “decreasing interaction strength”.

The record behind these values is IntAct's records for PubMed 28559451.
